# Laboratory results from patent US20220204643A1 (published 2022).
# T1: Atpase secretory pathway ca2+ transporting 1 (human, UniProt P98194 1-909)
# T1 construct: HuProt array protein, full-length recombinant from yeast; also called ATP2C1
# T1 sequence: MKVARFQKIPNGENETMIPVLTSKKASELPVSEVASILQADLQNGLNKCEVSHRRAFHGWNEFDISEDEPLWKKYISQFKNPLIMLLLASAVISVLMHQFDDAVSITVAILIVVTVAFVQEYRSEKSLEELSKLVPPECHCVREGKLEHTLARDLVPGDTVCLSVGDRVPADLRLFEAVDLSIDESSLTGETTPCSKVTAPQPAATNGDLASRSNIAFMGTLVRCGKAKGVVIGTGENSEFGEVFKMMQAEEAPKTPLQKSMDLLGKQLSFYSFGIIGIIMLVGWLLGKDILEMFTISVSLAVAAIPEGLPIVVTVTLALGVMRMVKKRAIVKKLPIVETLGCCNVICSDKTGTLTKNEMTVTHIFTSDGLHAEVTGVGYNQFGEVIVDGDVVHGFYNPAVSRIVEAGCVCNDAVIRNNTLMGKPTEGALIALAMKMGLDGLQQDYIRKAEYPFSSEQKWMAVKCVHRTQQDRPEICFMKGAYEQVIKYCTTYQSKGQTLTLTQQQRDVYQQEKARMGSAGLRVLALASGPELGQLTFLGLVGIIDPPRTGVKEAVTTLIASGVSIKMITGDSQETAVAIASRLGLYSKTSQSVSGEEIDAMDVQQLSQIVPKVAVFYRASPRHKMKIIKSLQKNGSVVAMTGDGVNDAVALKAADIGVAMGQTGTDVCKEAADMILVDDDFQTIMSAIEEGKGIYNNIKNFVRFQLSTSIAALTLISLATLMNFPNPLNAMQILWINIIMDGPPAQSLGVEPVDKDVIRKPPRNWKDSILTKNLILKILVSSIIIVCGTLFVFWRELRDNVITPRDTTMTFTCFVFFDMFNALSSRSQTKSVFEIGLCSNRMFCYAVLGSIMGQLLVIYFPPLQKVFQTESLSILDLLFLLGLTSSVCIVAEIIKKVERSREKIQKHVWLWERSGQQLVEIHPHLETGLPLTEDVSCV
# T2: teashirt zinc finger homeobox 2, transcript variant 1 (human, UniProt Q9NRE2 1-1034)
# T2 construct: HuProt array protein, full-length recombinant from yeast; also called TSHZ2
# T2 sequence: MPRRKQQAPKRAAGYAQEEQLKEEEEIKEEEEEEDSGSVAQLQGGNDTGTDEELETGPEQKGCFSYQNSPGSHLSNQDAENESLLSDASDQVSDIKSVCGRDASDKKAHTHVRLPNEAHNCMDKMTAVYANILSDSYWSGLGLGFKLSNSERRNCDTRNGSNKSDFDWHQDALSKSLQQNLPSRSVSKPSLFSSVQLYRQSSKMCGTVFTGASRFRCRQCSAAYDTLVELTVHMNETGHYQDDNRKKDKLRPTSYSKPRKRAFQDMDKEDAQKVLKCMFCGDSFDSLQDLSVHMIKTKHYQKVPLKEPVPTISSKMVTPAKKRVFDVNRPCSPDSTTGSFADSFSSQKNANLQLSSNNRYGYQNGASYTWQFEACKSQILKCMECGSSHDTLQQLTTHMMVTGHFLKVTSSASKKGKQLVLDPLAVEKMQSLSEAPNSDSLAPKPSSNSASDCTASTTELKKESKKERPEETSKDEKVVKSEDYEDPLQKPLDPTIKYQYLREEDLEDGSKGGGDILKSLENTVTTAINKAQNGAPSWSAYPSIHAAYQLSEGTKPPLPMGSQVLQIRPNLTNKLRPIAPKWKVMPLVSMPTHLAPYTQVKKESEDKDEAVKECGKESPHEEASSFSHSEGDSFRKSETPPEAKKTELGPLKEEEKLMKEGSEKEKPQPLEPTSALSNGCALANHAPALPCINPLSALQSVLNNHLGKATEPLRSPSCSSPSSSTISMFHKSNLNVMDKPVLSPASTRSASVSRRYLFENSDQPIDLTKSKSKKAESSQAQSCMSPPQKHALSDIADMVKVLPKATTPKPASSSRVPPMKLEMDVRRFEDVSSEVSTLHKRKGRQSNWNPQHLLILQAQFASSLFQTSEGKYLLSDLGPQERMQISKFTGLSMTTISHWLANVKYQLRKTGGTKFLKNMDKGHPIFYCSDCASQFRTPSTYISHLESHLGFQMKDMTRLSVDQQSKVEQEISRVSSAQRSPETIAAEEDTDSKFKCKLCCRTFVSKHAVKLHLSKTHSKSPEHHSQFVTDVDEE
# T3: RAD1 checkpoint DNA exonuclease, transcript variant 1 (human, UniProt O60671 1-282)
# T3 construct: HuProt array protein, full-length recombinant from yeast
# T3 sequence: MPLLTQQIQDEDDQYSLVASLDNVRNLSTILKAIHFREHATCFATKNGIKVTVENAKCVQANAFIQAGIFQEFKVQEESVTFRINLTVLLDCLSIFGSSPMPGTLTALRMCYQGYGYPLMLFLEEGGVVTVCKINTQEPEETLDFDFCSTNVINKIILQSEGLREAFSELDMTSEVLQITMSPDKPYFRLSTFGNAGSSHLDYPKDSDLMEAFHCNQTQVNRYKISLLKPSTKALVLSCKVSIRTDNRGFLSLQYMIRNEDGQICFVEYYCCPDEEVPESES
# T4: Microtubule associated scaffold protein 1 (human, UniProt Q9ULD2 875-1270)
# T4 construct: HuProt array protein, full-length recombinant from yeast; also called MTUS1
# T4 sequence: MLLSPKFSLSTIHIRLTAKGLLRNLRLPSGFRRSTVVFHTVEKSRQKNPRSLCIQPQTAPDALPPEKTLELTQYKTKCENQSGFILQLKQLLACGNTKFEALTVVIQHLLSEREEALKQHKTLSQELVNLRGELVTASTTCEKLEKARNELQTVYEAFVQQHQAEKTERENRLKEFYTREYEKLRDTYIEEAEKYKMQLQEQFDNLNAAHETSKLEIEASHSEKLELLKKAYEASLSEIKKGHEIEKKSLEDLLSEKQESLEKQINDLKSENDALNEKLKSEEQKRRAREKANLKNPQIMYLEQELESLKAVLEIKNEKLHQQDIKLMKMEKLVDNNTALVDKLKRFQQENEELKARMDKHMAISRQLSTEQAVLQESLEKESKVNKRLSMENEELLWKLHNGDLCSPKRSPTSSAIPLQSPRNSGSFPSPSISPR
# T5: RNA binding motif protein 47, transcript variant X10 (human, UniProt A0AV96 1-593)
# T5 construct: HuProt array protein, full-length recombinant from yeast; also called RBM47
# T5 sequence: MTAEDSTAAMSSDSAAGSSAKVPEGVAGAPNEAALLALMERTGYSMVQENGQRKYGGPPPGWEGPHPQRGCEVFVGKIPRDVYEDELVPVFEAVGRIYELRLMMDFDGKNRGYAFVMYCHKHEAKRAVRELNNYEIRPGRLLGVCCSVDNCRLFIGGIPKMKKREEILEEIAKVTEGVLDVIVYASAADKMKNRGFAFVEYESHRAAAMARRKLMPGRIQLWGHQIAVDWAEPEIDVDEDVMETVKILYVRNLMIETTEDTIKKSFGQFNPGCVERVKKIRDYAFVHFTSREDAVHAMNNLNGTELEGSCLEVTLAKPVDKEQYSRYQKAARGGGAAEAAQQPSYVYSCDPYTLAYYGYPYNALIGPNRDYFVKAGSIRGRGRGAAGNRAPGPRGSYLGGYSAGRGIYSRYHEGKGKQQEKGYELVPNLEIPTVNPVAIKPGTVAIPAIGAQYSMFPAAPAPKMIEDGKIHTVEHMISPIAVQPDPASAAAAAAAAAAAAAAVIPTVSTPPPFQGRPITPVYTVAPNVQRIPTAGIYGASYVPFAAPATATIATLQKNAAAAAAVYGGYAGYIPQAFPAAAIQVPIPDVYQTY
# T6: NCCRP1, F-box associated domain containing (human, UniProt Q6ZVX7 1-275)
# T6 construct: HuProt array protein, full-length recombinant from yeast
# T6 sequence: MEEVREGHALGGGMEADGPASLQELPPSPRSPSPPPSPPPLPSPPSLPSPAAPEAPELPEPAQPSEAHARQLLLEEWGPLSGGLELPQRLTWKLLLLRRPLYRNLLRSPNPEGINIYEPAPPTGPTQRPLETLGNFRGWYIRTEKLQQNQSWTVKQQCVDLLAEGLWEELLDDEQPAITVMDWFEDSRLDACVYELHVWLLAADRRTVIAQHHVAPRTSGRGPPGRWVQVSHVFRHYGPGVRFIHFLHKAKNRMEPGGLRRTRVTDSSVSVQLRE
# Key:
# [1] = biological target: T1, Atpase secretory pathway ca2+ …
# [2] = biological target: T2, teashirt zinc finger homeobox 2, …
# [3] = biological target: T3, RAD1 checkpoint DNA exonuclease, …
# [4] = biological target: T4, Microtubule associated scaffold protein …
# [5] = biological target: T5, RNA binding motif protein 47, …
# [6] = biological target: T6, NCCRP1, F-box associated domain …
# [7] = biological target: T7, coiled-coil domain containing 102A, transcript variant X1 (human, UniProt Q96A19 1-550)
# T7 construct: HuProt array protein, full-length recombinant from yeast; also called CCDC102A
# T7 sequence (Q96A19 other isoform, or with tags, fused parts or gaps mutant limits assumed): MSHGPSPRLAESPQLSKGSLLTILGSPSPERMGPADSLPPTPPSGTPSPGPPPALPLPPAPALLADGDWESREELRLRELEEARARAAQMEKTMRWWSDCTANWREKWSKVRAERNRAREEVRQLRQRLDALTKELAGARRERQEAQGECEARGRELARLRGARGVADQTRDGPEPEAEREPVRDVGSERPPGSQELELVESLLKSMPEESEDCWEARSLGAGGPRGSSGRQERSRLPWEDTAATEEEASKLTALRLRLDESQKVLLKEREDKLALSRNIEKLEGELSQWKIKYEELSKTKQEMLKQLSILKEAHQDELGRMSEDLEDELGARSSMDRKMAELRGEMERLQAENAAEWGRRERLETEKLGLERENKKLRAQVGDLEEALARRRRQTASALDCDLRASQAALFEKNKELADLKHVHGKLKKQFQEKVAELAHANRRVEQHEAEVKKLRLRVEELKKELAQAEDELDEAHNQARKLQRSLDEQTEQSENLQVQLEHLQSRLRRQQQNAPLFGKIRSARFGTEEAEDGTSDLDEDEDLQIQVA
binder,measurement,setting,value
"TESO1006 (antibody, V domains shown, detected with anti-human IgG Fc) VH: QLHLQESGPGLVKPSETLSLTCTVSGGSVSSSSYYWGWVRQPPGKGLEWIGHVYYSGRTYYNPSLKSRATISLDTSKNQFSLKLSSLTATDTAVYYCATIVAAYSYGFEFDPWGQGILVIVSS VL: QSVLTQPPSVSAAPGQKVTISCSGGSSNIGNNYVSWYQQLPGTAPKLIIYDNDKRPAGIPDRFSGSKSGSSATLGITGLQNGDEAEYYCGTWDSSLGGGVFGGGTKVTVLG",binding result,[1],binds
same,binding result,[2],binds
"THNS1006 (antibody, V domains shown, detected with anti-human IgG Fc) VH: QVQLVESGGGVVQPGRSLRLSCAASGFTFSSYGMHWVRQAPGKGLEWVAIISYDGSNKYYADSVKGRFTISRDKSKNTLYLQMNSLRAEDTAVYYCAKSKGNYRDAMDVWGQGTTVTVSS VL: SYVLTQPPSVSVAPGQTARITCGGNNIGSKSVHWYQQKPGQAPVLVVYDDSDRPSGIPERFSGSNSGNTATLTISRVEAGDEADYYCQVWDSSSDPWVFGGGTKLTVLG",binding result,[3],binds
same,binding result,[4],binds
"THNS1004 (antibody, V domains shown, detected with anti-human IgG Fc) VH: EVQLVESGGGLVQPGGSLRLSCAASGFTFSSNWMSWVRQAPGKGLEWVANIKEDGSEKYYVDSVKGRFTIFRDNAKNSLYLQMNSLRAEDTAVYYCARVPSRYGRSRGAFDIWGQGTMVTVSS VL: DIQMTQSPSSLSASVGDRVTITCRASQSISSYLNWYQQKPGKAPKLLIYAASSLQSGVPSRFSGSGSGTDFTLAISSLQPEDFATYYCHQTYSTRLTFGGGTEVEIKR",binding result,[5],binds
"THNS1003 (antibody, V domains shown, detected with anti-human IgG Fc) VH: VVQLVESGGGLVQPGGSLRLSCAASGFTFNNYEMNWVRQAPGKGLEWVSYISSSGSTIYYADSVKGRFTISRDNAKNSLYLQMNSLRAEDTAVYYCARQMVTTRGYWGQGTLVTVSS VL: not shown",binding result,[6],binds
same,binding result,[7],binds
